From the supplement of paper PMC7877785
± gives the uncertainty stated by the source.

Assay: self-splicing fitness, log relative to wild type (ln ratio); higher = more splicing; Tetrahymena group I intron in knt gene, E. coli kanamycin selection, DiMSum; sequences stand for … in CUCUCU…GGAGGGAAAAGUUAUCAGGCAUGCACCUGGUAGCUAGUCUUUAAACCAAUAGAUUGCAUCGGUUUAAAAGGCAAGACCGUCAAAUUGCGGGAAAGGGGUCAACAGCCGUUCAGUACCAAGUCUCAGGGGAAACUUUGAGAUGGCCUUGCAAAGGGUAUGGUAAUAAGCUGACGGACAUGGUCCUAACCACGCAGCCAAGUCCUAAGUCAACAGAUCUUCUGUUGAUAUGGAUGCAGUUCACAGACUAAAUGUCGGUCGGGGAAGAUGUAUUCUUCUCAUAAGAUAUAGUCGGACCUCUCCUUAAUGGGAGCUAGCGGAUGAAGUGAUGCAACACUGGAGCCGCUGGGAACUAAUUUGUAUGCGAAAGUAUAUUGAUUAGUUUUGGAGUACUCGUGGUCG
In short: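 A randomised library covering all eight P1ex-region intron nucleotides was built with the intron in the knt kanamycin-resistance gene on pET-22b(+) and held in E. coli BL21(DE3). Cells were grown overnight at 37°C or 30°C on LB agar, with or without 25 μg/mL kanamycin, plus 100 μg/mL carbenicillin, 50 μM IPTG and 0.2% rhamnose, and pooled colonies were amplicon-sequenced on an Illumina HiSeq 2500. DiMSum fitness is the error-weighted combination of wild-type-normalised replicate fold changes, kanamycin versus none.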

Sequence | self-splicing fitness (ln) (30 °C) | self-splicing fitness (ln) (37 °C)
UUAAAGCAAUAUUACGUGCC | -0.9 ± 0.11 | -0.509 ± 0.16
UUACAGCAAUAUUACGAAAC | -2.85 ± 0.33 | -2.49 ± 0.41
UUACAGCAAUAUUACGAACC | -1.61 ± 0.4 | 
UUACAGCAAUAUUACGAAUA | -2.6 ± 0.3 | -1.03 ± 0.2
UUACAGCAAUAUUACGACCG | -0.642 ± 0.091 | -0.0873 ± 0.13
UUACAGCAAUAUUACGAGCC | -2.86 ± 0.44 | -1.13 ± 0.31
UUACAGCAAUAUUACGAUGC | -3.18 ± 0.27 | -2.95 ± 0.36
UUACAGCAAUAUUACGAUGU | -4.69 ± 0.39 | -2.86 ± 0.23
UUACAGCAAUAUUACGCAGG | -1.79 ± 0.14 | -1.44 ± 0.14
UUACAGCAAUAUUACGCAGU | -4.23 ± 0.31 | -2.55 ± 0.28
UUACAGCAAUAUUACGCCAC |  | -2.7 ± 0.43
UUACAGCAAUAUUACGCCAG | -1.74 ± 0.15 | -1.05 ± 0.21
UUACAGCAAUAUUACGCCCA | -1.62 ± 0.32 | -0.254 ± 0.3
UUACAGCAAUAUUACGCCGG | -0.726 ± 0.094 | -0.416 ± 0.13
UUACAGCAAUAUUACGCGGG | -2.33 ± 0.14 | -0.688 ± 0.12
UUACAGCAAUAUUACGCUCC | -1.45 ± 0.24 | -1.3 ± 0.24
UUACAGCAAUAUUACGCUCU | -1.01 ± 0.074 | -0.47 ± 0.087
UUACAGCAAUAUUACGCUGU | -3.49 ± 0.27 | -2.37 ± 0.34
UUACAGCAAUAUUACGCUUU | -3.28 ± 0.25 | -2.08 ± 0.18
UUACAGCAAUAUUACGGAUG | -2.18 ± 0.1 | -0.325 ± 0.1
UUACAGCAAUAUUACGGCGG | -0.579 ± 0.087 | 0.426 ± 0.13
UUACAGCAAUAUUACGGGUU | -3.73 ± 0.12 | -2.34 ± 0.12
UUACAGCAAUAUUACGGUAA | -2.33 ± 0.2 | -1.68 ± 0.17
UUACAGCAAUAUUACGGUCC | -1.95 ± 0.16 | -1.03 ± 0.16
UUACAGCAAUAUUACGUAGU | -2.7 ± 0.15 | -3.5 ± 0.33

Sequence | self-splicing fitness (ln) (30 °C) | self-splicing fitness (ln) (37 °C)
UUACAGCAAUAUUACGUAUA | -1.59 ± 0.11 | -0.688 ± 0.14
UUACAGCAAUAUUACGUCGU | -3.81 ± 0.16 | -2.26 ± 0.14
UUACAGCAAUAUUACGUUAC | -3.56 ± 0.28 | -3.03 ± 0.27
UUACAGCAAUAUUACGUUAG | -0.713 ± 0.086 | 0.208 ± 0.12
UUACAGCAAUAUUACGUUGA | -1.57 ± 0.1 | -0.574 ± 0.1
UUACAGCAAUAUUACGUUUC | -3.05 ± 0.17 | -2.53 ± 0.25
UUAGAGCAAUAUUACGAAAG | -2.9 ± 0.4 | -0.494 ± 0.35
UUAGAGCAAUAUUACGAACA | -2.48 ± 0.19 | -0.84 ± 0.19
UUAGAGCAAUAUUACGACGA | 0.428 ± 0.12 | 0.651 ± 0.15
UUAGAGCAAUAUUACGAGGG |  | -2.64 ± 0.44
UUAGAGCAAUAUUACGAUCA | -1.52 ± 0.16 | -0.808 ± 0.17
UUAGAGCAAUAUUACGAUCU | -2.45 ± 0.24 | -3.11 ± 0.3
UUAGAGCAAUAUUACGCAAU | -2.21 ± 0.2 | -1.52 ± 0.41
UUAGAGCAAUAUUACGCCGA | -0.286 ± 0.14 | 0.255 ± 0.18
UUAGAGCAAUAUUACGCCUG | -0.457 ± 0.11 | 0.235 ± 0.18
UUAGAGCAAUAUUACGCGAG | -0.443 ± 0.084 | -0.0681 ± 0.094
UUAGAGCAAUAUUACGGACA | -2.08 ± 0.13 | -0.655 ± 0.16
UUAGAGCAAUAUUACGGAUC |  | -1.56 ± 0.4
UUAGAGCAAUAUUACGGUAA | -1.34 ± 0.086 | -0.0767 ± 0.11
UUAGAGCAAUAUUACGGUAG | -1.27 ± 0.12 | -0.297 ± 0.14
UUAGAGCAAUAUUACGGUGG | -1.95 ± 0.12 | -0.679 ± 0.13
UUAGAGCAAUAUUACGUACC |  | -0.711 ± 0.48
UUAGAGCAAUAUUACGUGAG | -1.88 ± 0.083 | -0.875 ± 0.13
UUAUAGCAAUAUUACGACAU | -2.471 ± 0.021 | -1.55 ± 0.036
UUAUAGCAAUAUUACGACUG | -1.05 ± 0.14 | -0.662 ± 0.15

Sequence | self-splicing fitness (ln) (30 °C) | self-splicing fitness (ln) (37 °C)
UUAUAGCAAUAUUACGAUCC |  | -2.87 ± 0.26
UUAUAGCAAUAUUACGAUUG | -1.01 ± 0.13 | -0.505 ± 0.2
UUAUAGCAAUAUUACGCGUG | -0.968 ± 0.11 | -0.618 ± 0.13
UUAUAGCAAUAUUACGCUAC |  | -1.33 ± 0.45
UUAUAGCAAUAUUACGCUCC | -2.11 ± 0.24 | 0.501 ± 0.45
UUAUAGCAAUAUUACGGCUU | -1.99 ± 0.17 | -0.583 ± 0.18
UUAUAGCAAUAUUACGGUGU | -3.63 ± 0.31 | -2.23 ± 0.3
UUAUAGCAAUAUUACGUGCC | -2.08 ± 0.27 | -0.756 ± 0.35
UUAUAGCAAUAUUACGUUAA | -2.07 ± 0.29 | -1.61 ± 0.22
UUAUAGCAAUAUUACGUUAU |  | -2.31 ± 0.34
UUAUAGCAAUAUUACGUUCG | -0.942 ± 0.091 | 0.154 ± 0.14
UUAUAGCAAUAUUACGUUCU | -2.18 ± 0.15 | -1.11 ± 0.16
UUCAAGCAAUAUUACGAAUC | -4.05 ± 0.3 | -2.75 ± 0.32
UUCAAGCAAUAUUACGAAUU | -3.21 ± 0.24 | -1.69 ± 0.27
UUCAAGCAAUAUUACGACAU | -1.614 ± 0.014 | -0.69 ± 0.033
UUCAAGCAAUAUUACGAGUA | -0.831 ± 0.083 | -0.136 ± 0.089
UUCAAGCAAUAUUACGAGUC | -3.3 ± 0.31 | -1.93 ± 0.26
UUCAAGCAAUAUUACGAUAA | -0.317 ± 0.048 | 0.226 ± 0.059
UUCAAGCAAUAUUACGAUAU | -2.7 ± 0.18 | -1.42 ± 0.18
UUCAAGCAAUAUUACGCACA | -0.531 ± 0.089 | 0.153 ± 0.13
UUCAAGCAAUAUUACGCAUU | -3.98 ± 0.26 | -1.27 ± 0.13
UUCAAGCAAUAUUACGCCGA | -0.5 ± 0.18 | -0.423 ± 0.23
UUCAAGCAAUAUUACGCGUA | -1.17 ± 0.14 | -0.0781 ± 0.1
UUCAAGCAAUAUUACGCGUG | -3.38 ± 0.17 | -2.13 ± 0.17
UUCAAGCAAUAUUACGGAGA | -1.55 ± 0.18 | -1.32 ± 0.19

Sequence | self-splicing fitness (ln) (30 °C) | self-splicing fitness (ln) (37 °C)
UUCAAGCAAUAUUACGGAGC | -2.66 ± 0.28 | -1.8 ± 0.23
UUCAAGCAAUAUUACGGCGU | -1.61 ± 0.094 | -0.465 ± 0.12
UUCAAGCAAUAUUACGUCAA | -0.772 ± 0.092 | -0.645 ± 0.1
UUCAAGCAAUAUUACGUCCA | -1.12 ± 0.11 | -0.803 ± 0.098
UUCAAGCAAUAUUACGUGAU | -1.8 ± 0.096 | -0.468 ± 0.11
UUCAAGCAAUAUUACGUUCG | -1.96 ± 0.12 | -1.44 ± 0.12
UUCCAGCAAUAUUACGAAAU | -2.78 ± 0.36 | -1.58 ± 0.32
UUCCAGCAAUAUUACGACAC | -3.32 ± 0.19 | -2.18 ± 0.19
UUCCAGCAAUAUUACGACGC | -3.25 ± 0.24 | -3.03 ± 0.17
UUCCAGCAAUAUUACGACUA | -0.435 ± 0.097 | -0.117 ± 0.085
UUCCAGCAAUAUUACGAGAC | -2.82 ± 0.27 | -1.79 ± 0.32
UUCCAGCAAUAUUACGAGUC | -2.56 ± 0.13 | -1.13 ± 0.15
UUCCAGCAAUAUUACGAUUC | -1.5 ± 0.17 | -2.04 ± 0.27
UUCCAGCAAUAUUACGCACA | -0.0937 ± 0.12 | -0.0969 ± 0.13
UUCCAGCAAUAUUACGCGCA | -0.0641 ± 0.12 | -0.358 ± 0.14
UUCCAGCAAUAUUACGCGGA | -2.74 ± 0.24 | -3.39 ± 0.33
UUCCAGCAAUAUUACGCGUA | -0.454 ± 0.087 | 0.0549 ± 0.083
UUCCAGCAAUAUUACGCGUC | -1.59 ± 0.16 | -0.827 ± 0.18
UUCCAGCAAUAUUACGCGUU | -2.35 ± 0.1 | -1.6 ± 0.1
UUCCAGCAAUAUUACGGACC | -1.77 ± 0.14 | -0.818 ± 0.16
UUCCAGCAAUAUUACGGAUA | -0.966 ± 0.092 | -0.56 ± 0.098
UUCCAGCAAUAUUACGGCGC | -2.61 ± 0.14 | -0.177 ± 0.12
